# According to PMC8754651 (2021):
# B1: human RPB6 (residues 1–24), NTT peptide [human] / human TFIIH p62 PH domain (PH-D) (residues 1–108) [human] (parent complex)
# chain 1: MSDNEDNFDGDDFDDVEEDEGLDD
# chain 2: MATSSEEVLLIVKKVRQKKQDGALYLMAERIAWAPEGKDRFTISHMYADIKCQKISPEGKAKIQLQLVLHAGDTTNFHFSNESTAVKERDAVKDLLQQLLPKFKRKAN
# Variants of: B1
# Experiment: ITC
row,Variant,Kd [µM]
1,chain 1 MADNEDNFDGDDFDDVEEDEGLDD [chain 1 S2A],3.65
2,chain 1 MSDNEDNFDGDDFDDAEEDEGLDD [chain 1 V16A],7.14
3,"chain 1 MSDNEDNFDGDDADDAEEDEGLDD [chain 1 F13A, chain 1 V16A]",7.35
4,chain 1 MSDNEDNADGDDFDDVEEDEGLDD [chain 1 F8A],2.85
